Source: patent publication US20220033501A1 (SHANGHAI PHARMAEXPLORER, published 2022)
Numbering of substitutions follows the chain as printed.

How the values were obtained:
[1] = target: T1, murine TIM-3 protein with hFc tag (mTIM-3-hFc protein) (mouse; human, UniProt Q8VIM0 29-191); experiment: ELISA, coated mTIM-3-hFc
T1 construct: Made in HEK293 cells; also called mouse TIM-3 extracellular domain protein; not shown: human IgG Fc fragment (hFc) of the pCpC vector
T1 chain: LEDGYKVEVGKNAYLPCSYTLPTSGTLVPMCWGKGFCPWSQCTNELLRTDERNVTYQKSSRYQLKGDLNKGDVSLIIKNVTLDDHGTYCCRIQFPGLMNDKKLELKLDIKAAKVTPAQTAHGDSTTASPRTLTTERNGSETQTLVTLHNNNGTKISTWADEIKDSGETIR

[2] = target: T2, human TIM-3 protein on human PBMC (human, UniProt Q8TDQ0 22-301); experiment: cell-based or functional assay
T2 sequence: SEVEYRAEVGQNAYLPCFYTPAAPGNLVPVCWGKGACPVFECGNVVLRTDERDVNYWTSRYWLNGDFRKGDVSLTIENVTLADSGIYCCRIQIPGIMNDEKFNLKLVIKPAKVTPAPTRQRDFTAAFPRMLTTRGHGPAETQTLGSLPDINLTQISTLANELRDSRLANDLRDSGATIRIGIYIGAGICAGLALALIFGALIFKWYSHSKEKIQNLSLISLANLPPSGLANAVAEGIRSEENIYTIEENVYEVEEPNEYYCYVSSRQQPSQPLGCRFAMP

[3] = target: T3, human TIM-3 ECD (antigen protein of the affinity test) (human, UniProt Q8TDQ0 22-200); experiment: AHC sensor kinetics, antibody captured on sensor, antigen protein in solution, global 1:1 fit
T3 sequence: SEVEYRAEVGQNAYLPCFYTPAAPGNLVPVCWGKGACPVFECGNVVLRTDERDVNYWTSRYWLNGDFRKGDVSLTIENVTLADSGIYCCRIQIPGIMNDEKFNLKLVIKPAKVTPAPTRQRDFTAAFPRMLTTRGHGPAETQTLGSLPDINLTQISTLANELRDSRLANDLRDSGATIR
Description: First, AHC sensor was selected, and the sensor was balanced with buffer solution for 10 min, then the antibody to be tested was diluted to 5 μg/ml with buffer solution, and the antibody was solidified with the sensor for 3-5 min, with a signal value of 1-2 nm. The sensor was balanced again with buffer solution for 3 minutes, and then the antigen protein was diluted to 100 nM (the highest concentration was tentatively 100 nM) to bind and dissociate the antibody coupled by the sensor. If enough signal value was obtained, the antigen protein was diluted by several concentration gradients to analyze the binding and dissociation of antibody and antigen. At that end of each cycle, the sensor surface was regenerated with 10 mM, pH 1.5 Glycine. The kinetic rate constant needed to be subtracted the blank control, and the data was fitted with the global fit analysis method 1:1 combination model. The dissociation equilibrium rate constant (KD) was calculated according to the following formula: KD=kd/ka.

B1: 7A4F10 fully human TIM-3 antibody (human IgG4, kappa) (antibody, V domains shown)
VH: EVQLLESGGGLVQPGGSLRLSCAASGFTFRTHLISWVRQAPGKGLEWVAAITGSGGSTYYADSVKGRFIISRDNSKNTLFLQMNSLRAEDTAVYYCAKDGGSGSYDDFWGQGTLVTVSS
VL: ETVLTQSPVTLSLSPGERATLSCRASQSVGSYLAWYQQKPGQAPRLLIYDASNRATGIPARFSGSGSGTDFTLTISSLEPEDFAVYYCQQRSNWPPTFGQGTKVEIK
binding result [1]: no binding (tested: 66.667 nM)

B2: fully human TIM-3 antibody 215A8F2 (antibody, human IgG4, V domains shown)
VH: QVQLQQWGAGLLKPSETLSLTCTVYGGSFSGYYWNWIRQPPGKGLEWLGEINHSGSTNYNPSLKRRVTISVDTSKNQFSLKLSSVTAADTAVYYCARVYYYGPFDFWGQGTLVTVSS
VL: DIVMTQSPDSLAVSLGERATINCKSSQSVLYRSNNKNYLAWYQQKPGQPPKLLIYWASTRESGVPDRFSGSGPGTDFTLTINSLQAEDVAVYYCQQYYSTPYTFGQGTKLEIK
notes: also called antibody number 4
IFN-γ production, lymphocyte activation assay (donor Y), antibody 0.1 µg/ml, N = 1 [2]: 2600 pg/mL
IFN-γ production, lymphocyte activation assay (donor Y), antibody 0.1 µg/ml, N = 2 [2]: 2340 pg/mL
IFN-γ production, lymphocyte activation assay (donor Y), antibody 1 µg/ml, N = 1 [2]: 3320 pg/mL
IFN-γ production, lymphocyte activation assay (donor Y), antibody 1 µg/ml, N = 2 [2]: 2560 pg/mL
IFN-γ production, lymphocyte activation assay (donor Y), antibody 10 µg/ml, N = 1 [2]: 3140 pg/mL
IFN-γ production, lymphocyte activation assay (donor Y), antibody 10 µg/ml, N = 2 [2]: 2790 pg/mL
IFN-γ production, lymphocyte activation assay (donor Y), antibody concentration head printed '0' (fifth), N = 1 [2]: 2380 pg/mL
IFN-γ production, lymphocyte activation assay (donor Y), antibody concentration head printed '0' (fifth), N = 2 [2]: 2070 pg/mL
IFN-γ production, lymphocyte activation assay (donor Y), antibody concentration head printed '0' (fourth), N = 1 [2]: 1990 pg/mL
IFN-γ production, lymphocyte activation assay (donor Y), antibody concentration head printed '0' (fourth), N = 2 [2]: 2000 pg/mL
Kd [3]: 0.133 nM
koff [3]: 0.000128 s⁻¹
kon [3]: 965000 M⁻¹ s⁻¹

B3: 215A8F2 fully human TIM-3 antibody (human IgG4, kappa) (antibody, V domains shown)
VH: B2 VH
VL: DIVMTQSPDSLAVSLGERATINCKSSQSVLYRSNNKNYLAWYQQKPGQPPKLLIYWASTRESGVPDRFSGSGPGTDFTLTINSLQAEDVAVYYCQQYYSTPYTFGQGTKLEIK
binding result [1]: no binding (tested: 66.667 nM)

B4: 34B6D8 fully human TIM-3 antibody (human IgG4, kappa) (antibody, V domains shown)
VH: EVQLVESGGGLVQPGGSLRLSCAASGFTFSTYWMTWVRQAPGKRLEWVANIKQGGGDKYYVDSVKGRFTISTDNAKNSLYLQMNSLRAEDTAVYYCARGSNWFDPWGQGTLVTVSS
VL: EIVMTQSPATLSMSPGERATLSCRASQSVYDNLAWYQQKPGQAPRLLIYGASTRATGIPARFSGSGSGTEFTLTISSLQSEDFALYYCQQYTHWPITFGQGTRLEIK
binding result [1]: no binding (tested: 66.667 nM)

B5: 39E5H1 fully human TIM-3 antibody (human IgG4, kappa) (antibody, V domains shown)
VH: B4 VH with T31S, T35S, R44G, Q53R, G56S, D57E, K58R, T72G, L79V
VL: B4 VL with I2T, T10I, M13V, D31S, P40L, G50D, L85V, T92N, H93N
binding result [1]: no binding (tested: 66.667 nM)

B6: fully human TIM-3 antibody 134H3G6 (antibody, human IgG4, V domains shown)
VH: EVQLVESGGGLVQPGGSLRLSCAASGFTFSNSWMTWVRQAPGKGLEWVANIKQAGTEKYYVDSVKGRFTISRDNAKNSLYLQMNSLRAEDTAVYYCNSGSNYFDYWGQGTLVTVSS
VL: EIVMTQSPATLSVSPGERATLSCRARQNFYSNLAWYQQKPGQAPRLLIYGASTRATGIPARFSGSGSGTEFTLTISSLQSEDFAVYYCQQYNNWPLTFGGGTKVEIK
notes: also called antibody number 3
IFN-γ production, lymphocyte activation assay (donor Y), antibody 0.1 µg/ml, N = 1 [2]: 2220 pg/mL
IFN-γ production, lymphocyte activation assay (donor Y), antibody 0.1 µg/ml, N = 2 [2]: 2550 pg/mL
IFN-γ production, lymphocyte activation assay (donor Y), antibody 1 µg/ml, N = 1 [2]: 3200 pg/mL
IFN-γ production, lymphocyte activation assay (donor Y), antibody 1 µg/ml, N = 2 [2]: 3230 pg/mL
IFN-γ production, lymphocyte activation assay (donor Y), antibody 10 µg/ml, N = 1 [2]: 3400 pg/mL
IFN-γ production, lymphocyte activation assay (donor Y), antibody 10 µg/ml, N = 2 [2]: 3910 pg/mL
IFN-γ production, lymphocyte activation assay (donor Y), antibody concentration head printed '0' (fifth), N = 1 [2]: 1810 pg/mL
IFN-γ production, lymphocyte activation assay (donor Y), antibody concentration head printed '0' (fifth), N = 2 [2]: 2120 pg/mL
IFN-γ production, lymphocyte activation assay (donor Y), antibody concentration head printed '0' (fourth), N = 1 [2]: 2030 pg/mL
IFN-γ production, lymphocyte activation assay (donor Y), antibody concentration head printed '0' (fourth), N = 2 [2]: 2260 pg/mL
Kd [3]: 4.05 nM
koff [3]: 0.00483 s⁻¹
kon [3]: 1.19e+06 M⁻¹ s⁻¹

B7: 134H3G6 fully human TIM-3 antibody (human IgG4, kappa) (antibody, V domains shown)
VH: B6 VH
VL: B6 VL
binding result [1]: no binding (tested: 66.667 nM)

B8: 18D2H2 fully human TIM-3 antibody (human IgG4, kappa) (antibody, V domains shown)
VH: B4 VH with G10D, K43R, R44G, G54D, G56S, D57A, I70L, T72R, N74D, P105Y
VL: B6 VL with I2T, R26N, F29V, G50D, I58F
binding result [1]: no binding (tested: 66.667 nM)

B9: 57F4E5 fully human TIM-3 antibody (human IgG4, kappa) (antibody, V domains shown)
VH: EVQLVESGGGLVQPGGSLRLSCAASGFTFSSYWMSWVRQAPGKGLEWVANIKQDGSEKYYVDSVKGRFTISRDSAKNSLYLQMNSLRAEDTAMYFCARDSNFFDYWGQGTLVTVSS
VL: B6 VL with I2T, R26S, N28S, F29V, Y30S, Q38R, G50F, A51S
binding result [1]: no binding (tested: 66.667 nM)
